Patent publication EP3848397A1 (NANJING UMAB-BIOPHARMA CO., LTD., dated 2021)
Read-outs that look alike come from different tables or passages of the source.

Assays:
Assay in all cases: cell-based or functional assay
[1] = target: T1, OX40 on Jurkat-OX40-NFκB-luciferase reporter cells (UniProt P43489 29-277)
T1 sequence (looked up): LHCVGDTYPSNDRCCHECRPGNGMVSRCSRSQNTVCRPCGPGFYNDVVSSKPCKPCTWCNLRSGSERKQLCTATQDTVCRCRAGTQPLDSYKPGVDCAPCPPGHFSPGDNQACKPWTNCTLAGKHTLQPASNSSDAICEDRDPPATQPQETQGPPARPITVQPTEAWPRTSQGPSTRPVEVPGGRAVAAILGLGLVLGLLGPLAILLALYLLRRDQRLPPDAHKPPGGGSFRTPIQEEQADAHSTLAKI

[2] = target: T1, OX40 on Jurkat-OX40-NFκB-luciferase …; remark: listed apart in the source
[3] = target: T1, OX40 on Jurkat-OX40-NFκB-luciferase …; remark: listed apart in the source

B1: MT01-C1 (antibody, human IgG1, V domains shown)
VH: EVQLVQSGAEVKKPGESLKISCKASGYTFTSYVMHWLRQMPGKGLEWMGYINPYNDGTKYNEKFKGQVTISSDKSISTAYLQWSSLKASDTAMYYCANYYGSKFAMDYWGQGTMVTVSS
VL: DIQMTQSPSSVSASVGDRVTITCRASQDISNYLSWYQQKPGGAVKLLIYYTSRLHSGVPSRFSGSGSGTDYTLTISSLQPEDFATYFCQQGITLPWTFGQGTKVEIK
- EC50 of NFκB-luciferase reporter activation (FcR-mediated) [1]: 0.0452 ng/mL
- Activation activity of OX40 signaling pathway, EC50 [2]: 0.178 nM
- Activation activity of OX40 signaling pathway, EC50 [3]: 0.325 nM
